What was measured:
BSA = biological target: T1, BSA (UniProt P02769 25-607); assay: Western blot, 20 μg BSA per lane, purified scFv 1:5, detection with anti-c-myc antibody
T1 construct: Control protein in the Western blot

Aβ1-42 = biological target: T2, Aβ1-42 (UniProt P05067 672-713); assay: Western blot, 20 μg Aβ1-42 per lane on PVDF, purified scFv 1:5, detection with anti-c-myc antibody and HRP goat anti-mouse IgG
T2 construct: domain: Aβ1-42; Sample loaded on the Tricine SDS-PAGE gel for the Western blot (20 μg per lane); also called Aβ 42; 合成的Aβ多肽

B1: E3单链抗体 (抗Aβ可溶性单链抗体) (scFv)
scFv: QVQLQESGPGLVKPSETLSLTCAVSGYSISSGYYWGWIRQPPGKGLEWIGSIYHSGSTYYNPSLKSRVTISVDTSKNQFSLKLSSVTAADTAVYYCARDLGSSVSWGQGTLVTVSSGGGGSGGGGSGGSALDIQMTQSPSSLSASVGDRVTISCRMSQGISNYLAWYQQKPGKVPKLLIYAASTLQSGVPSRFSGSGSGTDFTLTISSLQPEDVATYYCQKYNSALVTFGQGTKLEIKR
notes: Soluble scFv expressed in E. coli HB2151, purified on His-Trap, about 31 kD; also called E3scFv; E3 scFv; not shown: C-terminal tags of the pHEN2 vector, implied by His-Trap purification and detect
BSA
  binding result: no binding
Aβ1-42
  binding result: binds
